{"source": "paper PMC9170038", "about": "“Crowdsourced RNA design discovers diverse, reversible, efficient, self-contained molecular switches”", "binders": {"B1": {"name": "Eterna 6395988 (Inverted Same State NG 2) (ssRNA)", "RNA": "GUCUGAUUGUAGAAGGUACUUAAUACUCAUGUAACAUGAGGAUCACCCAUGUAUCAACAAUAUUGUAAGGAUAUACAAAUCUCA"}, "B2": {"name": "Eterna 7740407 (Exclusion - Tryptophan A) (ssRNA)", "RNA": "AAGCAGUCACUCGAAACCAUCGAAGAUGGACGAGGACCGGUACGGCCGCCACUCGGAGUGAUGUUCCGAAGACUGCAAAAUAAAA"}, "B3": {"name": "Eterna 15995 (Sensor v3, turn-off variant 1) (ssRNA)", "RNA": "UAUUAGCAAGCAAGGUCCCACAUGAGGAUCACCCAUGUGCUCGUCUUAUAAGGUACUGUGACGAAAGUCACGGUACC"}, "B4": {"name": "Eterna 7690517 (Same State - Theophylline B) (ssRNA)", "RNA": "AAUUUAUUAUCUGAUACCAGACUUUUUCUUGUUUAUAAGUCAAGUGAUGUUUGACUUUUAGUCCCUUGGCAGCAGUAUUUUUUAA"}, "B5": {"name": "Eterna 7639661 (Exclusion - Theophylline B) (ssRNA)", "RNA": "AUUUAUAGUUGUGAUACCAGACUUACAUGAGGAUCACCCAUGUUACUUAAAUGUUUUGAUGUCCCUUGGCAGCACUGUUUUUUUA"}, "B6": {"name": "Eterna 6120996 (Same State NG 1) (ssRNA)", "RNA": "GGUCCAGCAUGAGGAUAUGGCACCUUAUUGGUGCCAGAAGGCAUGUCUAUAGACAUGAGGAUCACCCAUGUAAUAAAUUGGACC"}, "B7": {"name": "Eterna 10111 (Sensor for hsa-mir-208a version 2) (ssRNA)", "RNA": "AAUUAUUAACAUGAGGAUCACCCAUGUAAAACAUGGAUUAACAAGCCUUUUCGUUUUUGCUCGUCUUAUAUUAUUAA"}, "B8": {"name": "Eterna 1200 (Exclusion - Tryptophan A) (ssRNA)", "RNA": "UGGAGUGCCUGGUCGUCACUAUGCCAACCACGAGGACCGGUACGGCCGCCACUCGUGAGGGAUAUUCAGAAAGUGAUGUUUUUUG"}, "B9": {"name": "Eterna 7755473 (Exclusion - Arginine A) (ssRNA)", "RNA": "UCCUUUGUUGCCAGUGAUGUUGGACAGGAAGGAGCGGGCAUAAGCCCAGGUAGGUCGCCUGUCAACUUUCUUAUAGCCCGAAGGU"}, "B10": {"name": "Eterna 7678744 (Same State - Tryptophan A) (ssRNA)", "RNA": "ACAGGAUCGAAAGAUCCUGAGCAGUCAAAACGAGGACCGGUACGGCCGCCACUCGAAUAAGAGAGUGAUGUUCUCGACUGCAAAA"}, "B11": {"name": "Eterna 10232 (Sensor for hsa-mir-208a) (ssRNA)", "RNA": "AACCAACAAAUAAAACAAGCGUGCUCGUCACAUGAGGAUCACCCAUGUUUAAGCGCUAUUCCUACUUCCUCAGCGCC"}, "B12": {"name": "Eterna 7629678 (Same State - Theophylline A) (ssRNA)", "RNA": "UUCUACAUGAGGAUCACCCAUGUAAACGAUACCAGACGAGUAUUAGUCCCUUGGCAGCGUAGAGUGUCGUUUAUAGUAGGAUACC"}, "B13": {"name": "Eterna 6444365 (Inverted Same State NG 3) (ssRNA)", "RNA": "AGAUUUGUACAUGAGGAUCACCCAUGUUAAUAGGUGGUUGUCAGAAGGCAUUAUUAGAGUUUUAAUGAGGAUAUGAAUUUACAA"}, "B14": {"name": "Eterna 7687214 (Same State - Theophylline B) (ssRNA)", "RNA": "UCGUGUAUAUCGGAUACCAGUGAAAACGAUACAUGAGGAUCACCCAUGUGAGUUGAUGUACACCCUUGGCAGCUGUAUAUAUCUA"}, "B15": {"name": "Eterna 7636321 (Exclusion - Theophylline B) (ssRNA)", "RNA": "CAUUAUGUAACUGAUACCAGUGUACUGACAUGAGGAUCACCCAUGUUGGGUUUUGUUGUACACCCUUGGCAGCAGAAUCAUAAUG"}, "B16": {"name": "Eterna 5921244 (Exclusion NG 2) (ssRNA)", "RNA": "AUUAUAUAGGAAGGAUAUAGAAUAUUAUUUUAACAUGAGGAUCACCCAUGUAACCUUAUGUGUAGCUAGAAGGUCCAUUUGUUA"}, "B17": {"name": "Eterna 7733059 (Exclusion - Tryptophan B) (ssRNA)", "RNA": "GGAGUCGGCACGGCCGCCACUGCGGUGGUGUGACAUGAGGAUCACCCAUGUUGUCAUGCGGCCCUUAGGACCGGGUGGCGGUUCC"}, "B18": {"name": "Eterna 5997882 (Exclusion 5) (ssRNA)", "RNA": "CAGCCCUGAGGAUAUCCCUACUUGUACAUGAGGAUCACCCAUGUCCUCCUCCGGGCUUCGGGAGAAGGCAGGUCUC"}, "B19": {"name": "Eterna 7618834 (Exclusion - Theophylline A) (ssRNA)", "RNA": "AGACAUGAGGAUCACCCAUGUAGUAUGGAUACCAGAUCCAGAUUUAUCCCUUGGCAGCUGUGGUACAGCGUUGGAUCGCUCCUAG"}, "B20": {"name": "Eterna 5956610 (Same State NG 2) (ssRNA)", "RNA": "UGGCUGAGUCGAGGAUAUGAUCUUCAUAUAAUAACAUGAGGAUCACCCAUGUAUAAUUACAUGGAUCAGAAGGCGACUCAGCCA"}, "B21": {"name": "Eterna 7745661 (Exclusion - FMN B) (ssRNA)", "RNA": "AGACUACUGAUAGGAUAUAACAUCCUAGUCGUAUACCGAAAGGUAUACGAUUCCCUUCUAGUGAUGUUAGAAGGGUCGGUAGUCA"}}, "details_in_all_cases": "chain copies: 2; label: tethered by stalled RNA polymerase", "key": {"[1]": {"biological_target": "T1, MS2 coat protein, dlFG mutant (Escherichia phage MS2, UniProt P03612, del68-81insG)", "assay": "4 mM Mg2+; no ligand; RNA-MaP array; 100 mM Tris-HCl pH 7.5, 80 mM KCl, 4 mM MgCl2, 0.1 mg/mL BSA, 1 mM DTT, 0.01 mg/mL yeast tRNA, 0.01% Tween-20; protein 1.5 nM to 3 uM; 37 C (Table S3)"}, "[2]": {"biological_target": "T1, MS2 coat protein, dlFG mutant", "assay": "4 mM Mg2+; miR-208a RNA 100 nM (AU…UUGU); RNA-MaP array; 100 mM Tris-HCl pH 7.5, 80 mM KCl, 4 mM MgCl2, 0.1 mg/mL BSA, 1 mM DTT, 0.01 mg/mL yeast tRNA, 0.01% Tween-20; protein 1.5 nM to 3 uM; 37 C (Table S3)"}, "[3]": {"biological_target": "T1, MS2 coat protein, dlFG mutant", "assay": "4 mM Mg2+; theophylline 2 mM; RNA-MaP array; 100 mM Tris-HCl pH 7.5, 80 mM KCl, 4 mM MgCl2, 0.1 mg/mL BSA, 1 mM DTT, 0.01 mg/mL yeast tRNA, 0.01% Tween-20; protein 1.5 nM to 3 uM; 37 C (Table S3)"}, "[4]": {"biological_target": "T1, MS2 coat protein, dlFG mutant", "assay": "4 mM Mg2+; L-tryptophan 2.4 mM; RNA-MaP array; 100 mM Tris-HCl pH 7.5, 80 mM KCl, 4 mM MgCl2, 0.1 mg/mL BSA, 1 mM DTT, 0.01 mg/mL yeast tRNA, 0.01% Tween-20; protein 1.5 nM to 3 uM; 37 C (Table S3)"}, "[5]": {"biological_target": "T1, MS2 coat protein, dlFG mutant", "assay": "4 mM Mg2+; FMN 200 uM; RNA-MaP array; 100 mM Tris-HCl pH 7.5, 80 mM KCl, 4 mM MgCl2, 0.1 mg/mL BSA, 1 mM DTT, 0.01 mg/mL yeast tRNA, 0.01% Tween-20; protein 1.5 nM to 3 uM; 37 C (Table S3)"}}, "data": [{"binder": "B1", "values": [{"measurement": "Kd", "setting": "[1]", "result": 576, "unit": "nM"}]}, {"binder": "B2", "values": [{"measurement": "Kd", "setting": "[1]", "result": "> 3000", "unit": "nM"}]}, {"binder": "B3", "values": [{"measurement": "Kd", "setting": "[2]", "result": 426, "unit": "nM"}]}, {"binder": "B4", "values": [{"measurement": "Kd", "setting": "[1]", "result": "> 3000", "unit": "nM"}]}, {"binder": "B5", "values": [{"measurement": "Kd", "setting": "[3]", "result": 14, "unit": "nM"}]}, {"binder": "B6", "values": [{"measurement": "Kd", "setting": "[1]", "result": 646, "unit": "nM"}]}, {"binder": "B7", "values": [{"measurement": "Kd", "setting": "[2]", "result": 135, "unit": "nM"}]}, {"binder": "B8", "values": [{"measurement": "Kd", "setting": "[1]", "result": "> 3000", "unit": "nM"}]}, {"binder": "B9", "values": [{"measurement": "Kd", "setting": "[1]", "result": "> 3000", "unit": "nM"}]}, {"binder": "B10", "values": [{"measurement": "Kd", "setting": "[1]", "result": "> 3000", "unit": "nM"}]}, {"binder": "B11", "values": [{"measurement": "Kd", "setting": "[2]", "result": 30.4, "unit": "nM"}]}, {"binder": "B12", "values": [{"measurement": "Kd", "setting": "[3]", "result": 28.4, "unit": "nM"}]}, {"binder": "B13", "values": [{"measurement": "Kd", "setting": "[1]", "result": 974, "unit": "nM"}]}, {"binder": "B14", "values": [{"measurement": "Kd", "setting": "[3]", "result": 15.1, "unit": "nM"}]}, {"binder": "UUUAAUGAGGGAACUGCUUAGUUU (ssRNA)", "note": "[Eterna 5 (OligoOldBControl)]", "values": [{"measurement": "Kd", "setting": "[1]", "result": "> 3000", "unit": "nM"}]}, {"binder": "B15", "values": [{"measurement": "Kd", "setting": "[3]", "result": 90.9, "unit": "nM"}]}, {"binder": "B16", "values": [{"measurement": "Kd", "setting": "[1]", "result": 224, "unit": "nM"}]}, {"binder": "B17", "values": [{"measurement": "Kd", "setting": "[4]", "result": 57, "unit": "nM"}]}, {"binder": "UUUGUUGCCAGUGAUGUUGGCAACUUU (ssRNA)", "note": "[Eterna 11 (K4-alt7bp_control)]", "values": [{"measurement": "Kd", "setting": "[1]", "result": "> 3000", "unit": "nM"}]}, {"binder": "B18", "values": [{"measurement": "Kd", "setting": "[5]", "result": 18.5, "unit": "nM"}]}, {"binder": "B19", "values": [{"measurement": "Kd", "setting": "[3]", "result": 29.4, "unit": "nM"}]}, {"binder": "B20", "values": [{"measurement": "Kd", "setting": "[1]", "result": 662, "unit": "nM"}]}, {"binder": "B21", "values": [{"measurement": "Kd", "setting": "[1]", "result": "> 3000", "unit": "nM"}]}]}
